Measurements: the supplement of paper PMC10567573
± gives the standard deviation.

Assay: protein stability index of a GFP-peptide fusion (GPS, HEK-293T) (PSI 1-6); higher = more stable
Conditions: c terminus: a fixed tail appended
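Note: 24-mer peptide tiles fused after GFP, lentivirally expressed, FACS-sorted into six equal bins by GFP/DsRed ratio, decoded by Illumina sequencing, PSI is the read-weighted mean bin number.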

Sequence | protein stability index (treatment: DMSO) | protein stability index (treatment: MLN4924 1 uM, 8 h)
INIKGISEAKADKILAEAAKLVPM [RAD51] | 2.62 ± 0.15 | 2.42 ± 0.15
INLEGKTFYSKKDRPLCKSHAFSH [PDLIM7] | 2.55 ± 0.077 | 2.71 ± 0.33
INTLNGLKLQTKTIKVSYARPSSA [ELAVL3] | 2.38 ± 0.2 | 2.39 ± 0.26
IQYEMEYTEGISQRMRVPEKLKVA [MFF] | 2.98 ± 0.28 | 3.08 ± 0.64
IRINPQSWFDNGSICMRMEILGCP [CPXM2] | 2.86 ± 0.53 | 2.68 ± 0.59
IRNEQFAIRRFQSMPVRLLGHSPV [CDC25B] | 2.71 ± 0.4 | 2.71 ± 0.21
ITMYAVGVGKAIEEELQEIASEPT [MATN2] | 3.18 ± 0.13 | 3.16 ± 0.19
ITVGLVFLCLQYRLRGKLRAEIEN [MOG] | 3.18 ± 0.42 | 3.29 ± 0.33
IVLAACSDYFCAMFTSELSEKGKP [KLHL12] | 2.76 ± 0.42 | 3.05 ± 0.64
IYLATSSSKFYDLFLMECEESPNG [RHOBTB1] | 2.66 ± 1.7 | 2.71 ± 0.98
KAEECDTITLNCPRNSDMKNQGEE [EDARADD] | 5.62 ± 0.32 | 5.51 ± 0.31
KAELGALPHDFIDSLEKTDDDKYK [NLN] | 5.31 ± 0.2 | 5.2 ± 0.32
KANNLSSLSKKYRQDAKYLNMRST [SEC22B] | 3.23 ± 0.11 | 3.33 ± 0.24
KAPSTDDATWAAVAACTKEIDTQG [C10orf62] | 5.14 ± 0.2 | 5.11 ± 0.09
KATFMYEQFPELMNMLWSRMLKDN [CLINT1] | 2.28 ± 1.1 | 2.37 ± 0.4
KCKKKITGEIMHALKMTWHVHCFT [PDLIM7] | 2.81 ± 0.81 | 2.7 ± 0.12
KDDKDFTGTVHRIDNTTVIYNSNI [KCNA1] | 4.29 ± 0.2 | 4.37 ± 0.2
KDPAYFYGYVYFRQVRDKTLKRGY [DENND6A] | 2.44 ± 0.31 | 1.96 ± 0.29
KEAFDTIQEQKVVLEENGEKNQVQ [SASS6] | 5.49 ± 0.34 | 5.71 ± 0.11
KEKANSLKNEIQEVEELDNWQPAV [SPATS1] | 5.24 ± 0.2 | 5.25 ± 0.27
KGTSPSSKYVKLNVGGALYYTTMQ [KCTD10] | 2.28 ± 0.091 | 2.2 ± 0.14
KHYRLQFYMFAWTHVTLLITVTQS [CDS1] | 2.93 ± 0.18 | 3.16 ± 0.16

Sequence | protein stability index (treatment: DMSO) | protein stability index (treatment: MLN4924 1 uM, 8 h)
KIQNHGHRVLQRLEQRRQQASERE [FCHSD1] | 4.28 ± 0.28 | 4.51 ± 0.075
KIREQNLQDIKTAGPQSQVLCGVV [ADD1] | 3.15 ± 0.43 | 3.37 ± 0.24
KKHKNSQLDKNSEVYQEVQAMFDT [FAM98B] | 4.31 ± 0.39 | 4.27 ± 0.35
KKKSVAMHTNYLSACSFTNSDMQI [GNB5] | 2.8 ± 0.12 | 2.8 ± 0.14
KKLRLNGGRNPYEGRVEVLVERNG [LOXL2] | 3.05 ± 0.13 | 4.01 ± 0.18
KKNSSPPLSLYGQLLWREFFYTAA [CRY1] | 2.42 ± 0.46 | 2.67 ± 0.63
KKRTEQEETIASLQMEVCRLKKEE [CEP70] | 5.22 ± 0.2 | 5.19 ± 0.38
KLDLWSFLDIPRSRLVKYPLLLKE [NET1] | 2.21 ± 0.52 | 1.94 ± 0.47
KLKNTVTIQQEKLLAEKEEKLQKE [SASS6] | 5.1 ± 0.46 | 5.2 ± 0.31
KLSPLRDRLVVTECQLTHSHPACP [ZSWIM9] | 3.56 ± 0.38 | 3.55 ± 0.27
KLVHFLLLKYRAREPVTKAEMLGS [MAGEA6] | 2.81 ± 0.48 | 2.78 ± 1.3
KLWDPVDGSVVRDFEHRPKAPVVE [WDR88] | 4.08 ± 0.23 | 4.23 ± 0.2
KLWNPRNFKAHVSPHEMLQAVVLC [USP39] | 2.63 ± 0.57 | 2.88 ± 0.47
KMDFKTNILLKNLVTIARKASLWQ [TRIM43] | 2.7 ± 0.49 | 2.62 ± 0.92
KMIMDTAGNDPYCFVEFHEHRHAA [TIA1] | 3.28 ± 0.17 | 3.26 ± 0.29
KMTPVKNYQAHQSRVTMILFVLEL [WDFY2] | 3.19 ± 0.39 | 2.88 ± 0.5
KPILLQRMEGSQEVVNMAVIVPKE [WDFY2] | 3.7 ± 0.09 | 3.54 ± 0.4
KPQAPQKLDPTLSSCFFIESCGAQ | 3.35 ± 0.28 | 3.15 ± 0.21
KPYECNECGKAFSQSSYLSQHRRI [ZNF232] | 2.32 ± 0.073 | 2.44 ± 0.32
KQCIVAHPVNPPYYIPLVELVPHP [CRYL1] | 2.33 ± 0.17 | 2.47 ± 0.32
KQEENDVVEKLNLFLDLLQSYKDL [SNX8] | 1.95 ± 0.29 | 2.12 ± 0.31
KQILDGVHYLHSKRIAHFDLKPEN [DAPK3] | 2.91 ± 0.18 | 3.19 ± 0.26

Sequence | protein stability index (treatment: DMSO) | protein stability index (treatment: MLN4924 1 uM, 8 h)
KQLLSNKELILDKVYTHPKWNTQT [ZC2HC1C] | 2.79 ± 0.14 | 3.15 ± 0.23
KQVCKIAALHGLEETKKLANKYLV [KLHL14] | 2.03 ± 0.31 | 2.35 ± 0.32
KQYQQRAFGWFRCSSCQRSWASAQ [RTP4] | 2.39 ± 0.34 | 2.25 ± 0.54
KRIEAEEAIKGLNGQKPLGAAEPI [ELAVL3] | 4.77 ± 0.16 | 4.951 ± 0.042
KRKEEECSTTDHPYKKPYMETSPS [TBX5] | 5.09 ± 0.22 | 5.02 ± 0.18
KSNNRLKSLSIQYLELDRLVWRNS [FBXO39] | 2.38 ± 0.18 | 2.4 ± 0.3
KSPDNEDSGDSKDIRLTLMEEVLL [GOLPH3L] | 3.82 ± 0.3 | 4.07 ± 0.19
KSQTACLPFVLAAAVSRKKKRRMG [EHMT1] | 3.38 ± 0.31 | 3.61 ± 0.3
KSSSVDSELTSLCQSVLEDFNLCL [SMG5] | 2.95 ± 0.25 | 2.97 ± 0.3
KSTMDAISAEGFTDIDIDTLCAVL [BTBD1] | 2.21 ± 0.22 | 2.33 ± 0.3
KTEITDLRRTMQELEIELQSQLSM [KRT15] | 3.79 ± 0.39 | 3.5 ± 0.24
KTGILILILSIIFIEGYCTPEEVI [MAGEA10] | 3.53 ± 0.9 | 2.63 ± 0.36
KTILGNAHDNSEELERARELKEKE [ANKRD44] | 5.62 ± 0.16 | 5.51 ± 0.21
KTKVPSNDNSSDLLYDDLYDDDID [UBE2R2] | 5.28 ± 0.43 | 5.38 ± 0.36
KTLQPTKQPNCSSLFKLKPLSNKT [PLD5] | 3.08 ± 0.17 | 3.09 ± 0.35
KTPPSSCDSTNAAIAKQALKKPIK [KMT5A] | 5.11 ± 0.12 | 5.15 ± 0.3
KTRQKSEKQMEEKRRANQKSSAQG [PPEF2] | 5.25 ± 0.27 | 5.3 ± 0.2
KTVSLQIFSVLNSDDAAAPALETQ [SMOC2] | 3.2 ± 0.59 | 3.56 ± 0.38
KVIVVMRSLFIDRTIVKGYNENVY [MED27] | 2.77 ± 0.39 | 3.29 ± 0.33
KVRSYVKRALAEGAQIWCGEGVDK [ALDH8A1] | 2.77 ± 0.098 | 2.78 ± 0.29
KYQANITETQRLGLAMALEPNTTF [FANCE] | 3.36 ± 0.17 | 3.4 ± 0.15
